Experiments:
[1] = target: T1, Recombinant Human DLL4 (delta-like protein 4) (human, UniProt Q9NR61 27-524); assay: ELISA, DLL4-coated plate, Fab in solution
T1 construct: Bought recombinant human DLL4 (R&D Systems Cat#1506-D4/CF); also called rHuman DLL4; Delta-like 4

[2] = target: T1, Recombinant Human DLL4 (delta-like …); assay: ECL (MSD) binding assay, DLL4 on plate, Fab in solution
[3] = target: T2, Recombinant Human DLL4 (R&D Systems Cat#1506-D4/CF) (human, UniProt Q9NR61 27-524); assay: ELISA, Fab on plate-coated DLL4, absorbance at 450 nm
T2 construct: also called rHuman DLL4; delta-like protein 4

[4] = target: T2, Recombinant Human DLL4 (R&D Systems …); assay: ECL (MSD) multispot binding assay, Fab on immobilized recombinant human DLL4
[5] = target: T3, Recombinant Human DLL4 (delta-like protein 4) (human, UniProt Q9NR61 27-524); assay: ECL (MSD) binding assay, Fab on immobilized DLL4
T3 construct: Bought recombinant human DLL4 (R&D Systems Cat#1506-D4/CF); also called rHuman DLL4; Delta-like 4

[6] = target: T3, Recombinant Human DLL4 (delta-like …); assay: ELISA, Fab on plate-coated DLL4

B1: Fab VH5-51_IGHD5-18*01>3_IGHJ4*01 G100K/G104T G24R & V3-4_IGLJ1*01 (Fab, V domains shown)
VH: EVQLVQSGAEVKKPGESLKISCKRSGYSFTSYWIGWVRQMPGKGLEWMGIIYPGDSDTRYSPSFQGQVTISADKSISTAYLQWSSLKASDTAMYYCARRKYSYTYDYFDYWGQGTLVTVSS
VL: QTVVTQEPSFSVSPGGTVTLTCGLSSGSVSTSYYPSWYQQTPGQAPRTLIYSTNTRSSGVPDRFSGSILGNKAALTITGAQADDESDYYCVLYMGSGISYVFGTGTKVTVL
notes: Fab made in E. coli; also called KT G24R
ELISA (Signal-Noise) [1]: 0.06 | ECL signal [2]: 4200

B2: Fab VH5-51_IGHD5-18*01>3_IGHJ4*01 G100K/G104T S28K & V3-4_IGLJ1*01 (Fab, V domains shown)
VH: EVQLVQSGAEVKKPGESLKISCKGSGYKFTSYWIGWVRQMPGKGLEWMGIIYPGDSDTRYSPSFQGQVTISADKSISTAYLQWSSLKASDTAMYYCARRKYSYTYDYFDYWGQGTLVTVSS
VL: QTVVTQEPSFSVSPGGTVTLTCGLSSGSVSTSYYPSWYQQTPGQAPRTLIYSTNTRSSGVPDRFSGSILGNKAALTITGAQADDESDYYCVLYMGSGISYVFGTGTKVTVL
notes: Fab made in E. coli; also called KT S28K
ELISA (Signal-Noise) [1]: 0.28 | ECL signal [2]: 32300

B3: Fab VH5-51_IGHD5-18*01>3_IGHJ4*01 G100K/G104T I50A & V3-4_IGLJ1*01 (Fab, V domains shown)
VH: EVQLVQSGAEVKKPGESLKISCKGSGYSFTSYWIGWVRQMPGKGLEWMGAIYPGDSDTRYSPSFQGQVTISADKSISTAYLQWSSLKASDTAMYYCARRKYSYTYDYFDYWGQGTLVTVSS
VL: QTVVTQEPSFSVSPGGTVTLTCGLSSGSVSTSYYPSWYQQTPGQAPRTLIYSTNTRSSGVPDRFSGSILGNKAALTITGAQADDESDYYCVLYMGSGISYVFGTGTKVTVL
notes: Tested as Fab; CH1 with His6/Flag tags (plasmid A) and lambda CL (plasmid E) come from the expression vectors; also called KT I50A
ELISA (Signal-Noise) [3]: 0.02 | ECL Signal/Blank [4]: 40.9

B4: Fab VH5-51_IGHD5-18*01>3_IGHJ4*01 G100K/G104T I51A & V3-4_IGLJ1*01 (Fab, V domains shown)
VH: EVQLVQSGAEVKKPGESLKISCKGSGYSFTSYWIGWVRQMPGKGLEWMGIAYPGDSDTRYSPSFQGQVTISADKSISTAYLQWSSLKASDTAMYYCARRKYSYTYDYFDYWGQGTLVTVSS
VL: QTVVTQEPSFSVSPGGTVTLTCGLSSGSVSTSYYPSWYQQTPGQAPRTLIYSTNTRSSGVPDRFSGSILGNKAALTITGAQADDESDYYCVLYMGSGISYVFGTGTKVTVL
notes: Tested as Fab; CH1 with His6/Flag tags (plasmid A) and lambda CL (plasmid E) come from the expression vectors; also called KT I51A
ELISA (Signal-Noise) [3]: 0.01 | ECL Signal/Blank [4]: 30.6

B5: Fab VH5-51_IGHD5-18*01>3_IGHJ4*01 G100K/G104T P53A & V3-4_IGLJ1*01 (Fab, V domains shown)
VH: EVQLVQSGAEVKKPGESLKISCKGSGYSFTSYWIGWVRQMPGKGLEWMGIIYAGDSDTRYSPSFQGQVTISADKSISTAYLQWSSLKASDTAMYYCARRKYSYTYDYFDYWGQGTLVTVSS
VL: QTVVTQEPSFSVSPGGTVTLTCGLSSGSVSTSYYPSWYQQTPGQAPRTLIYSTNTRSSGVPDRFSGSILGNKAALTITGAQADDESDYYCVLYMGSGISYVFGTGTKVTVL
notes: Tested as Fab; CH1 with His6/Flag tags (plasmid A) and lambda CL (plasmid E) come from the expression vectors; also called KT P53A
ELISA (Signal-Noise) [3]: 0 | ECL Signal/Blank [4]: 57.7

B6: Fab VH5-51_IGHD5-18*01>3_IGHJ4*01 G100K/G104T (KT) & V3-4_IGLJ1*01 S52C (Fab, V domains shown)
VH: EVQLVQSGAEVKKPGESLKISCKGSGYSFTSYWIGWVRQMPGKGLEWMGIIYPGDSDTRYSPSFQGQVTISADKSISTAYLQWSSLKASDTAMYYCARRKYSYTYDYFDYWGQGTLVTVSS
VL: QTVVTQEPSFSVSPGGTVTLTCGLSSGSVSTSYYPSWYQQTPGQAPRTLIYCTNTRSSGVPDRFSGSILGNKAALTITGAQADDESDYYCVLYMGSGISYVFGTGTKVTVL
notes: Tested as a Fab (VH-CH1 with His and Flag tags, lambda VL-CL); also called H:KT & L:S52C
ECL signal [5]: 64300 | ELISA signal [6]: 0.1

B7: Fab VH5-51_IGHD5-18*01>3_IGHJ4*01 G100K/G104T (KT) & V3-4_IGLJ1*01 R56I (Fab, V domains shown)
VH: EVQLVQSGAEVKKPGESLKISCKGSGYSFTSYWIGWVRQMPGKGLEWMGIIYPGDSDTRYSPSFQGQVTISADKSISTAYLQWSSLKASDTAMYYCARRKYSYTYDYFDYWGQGTLVTVSS
VL: QTVVTQEPSFSVSPGGTVTLTCGLSSGSVSTSYYPSWYQQTPGQAPRTLIYSTNTISSGVPDRFSGSILGNKAALTITGAQADDESDYYCVLYMGSGISYVFGTGTKVTVL
notes: Tested as a Fab (VH-CH1 with His and Flag tags, lambda VL-CL); also called H:KT & L:R56I
ECL signal [5]: 94300 | ELISA signal [6]: 0.13
